Source: patent publication US20200399314A1 (MEDIKINE, published 2020)
Bridge positions count the residues as written; N and C are the ends. Ends that are not written are not given here.

T1: human IL-2Rα subunit (human, UniProt P01589 22-213, limits assumed)
T1 construct: also called CD25
T1 sequence (looked up): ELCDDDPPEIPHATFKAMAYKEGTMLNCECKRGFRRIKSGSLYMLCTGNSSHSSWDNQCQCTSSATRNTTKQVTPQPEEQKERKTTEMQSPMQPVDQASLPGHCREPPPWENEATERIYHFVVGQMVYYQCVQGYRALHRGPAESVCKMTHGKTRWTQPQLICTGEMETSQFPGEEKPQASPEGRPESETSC

B1: SEQ ID NO 295 (peptide)
peptide: LSVCSCPPGQLYCMVE
modifications: disulfide (positions not given here); also: disulfide between two of the three Cys, which not given here
B2: SEQ ID NO 304 (peptide)
peptide: LSVCSCPPGQLYCMVE
modifications: disulfide (positions not given here); also: disulfide between two of the three Cys, which not given here

Molecular target: T1, human IL-2Rα subunit

Binder | IC50 [µM]
RWECIYIPGRKGCTLQ [SEQ ID NO 99] | < 100
GFRCTYDPGTHSCWSI [SEQ ID NO 94] | < 100
VFCIGYGAAQSCHS [SEQ ID NO 82] | < 100
TRCTVIGPPWSCRF [SEQ ID NO 81] | < 100
STWCCLHPGVGECQAV [SEQ ID NO 305] | < 100
MRCILSPSREHCLF [SEQ ID NO 76] | < 100
LRCRLDTRDGTCRF [SEQ ID NO 75] | < 100
HVICSVNGGCRG [SEQ ID NO 44] | < 100
VTQCFDGPGSFRCCYQ [SEQ ID NO 306] | < 100
SRCVMSLQLGACIF [SEQ ID NO 80] | < 100
PWVCEHYPGRRGCVLM (disulfide 4-13 (inferred)) [SEQ ID NO 96] | < 100
DRCDTRTWGYYCWI [SEQ ID NO 86] | < 100
CKLTCTSSTCSCVF [SEQ ID NO 285] | < 100
KLFCLRSGDRACWVV (disulfide 4-12 (inferred)) [SEQ ID NO 60] | < 100
WAYDWSCFRRRL [SEQ ID NO 3] | < 100
RQCNCLSPGELVNCQQ [SEQ ID NO 307] | < 100
STWCCLHPGVGECQAV [SEQ ID NO 296] | < 100
FVEWQAYFSQMM [SEQ ID NO 6] | < 100
RQCNCLSPGELVNCQQ [SEQ ID NO 298] | < 100
EQFCLVSDPMACWSL (disulfide 4-12 (inferred)) [SEQ ID NO 50] | < 100
CMLKCTNAICECIF [SEQ ID NO 286] | < 100
FLPWPVYFSQVL [SEQ ID NO 5] | < 100
VVHCLQSGCYSVGSG [SEQ ID NO 300] | < 100

Binder | IC50 [µM]
HEICCGPPGCHSCSVT [SEQ ID NO 294] | < 100
TTCCTSEGCHKCITL [SEQ ID NO 291] | < 100
MVSCTDLGCVVVGGG [SEQ ID NO 299] | < 100
HEICCGPPGCHSCSVT [SEQ ID NO 303] | < 100
RVYCLASEPNSCWST [SEQ ID NO 52] | < 100
SGCRLSLLDGHCYF [SEQ ID NO 78] | < 100
YVTCRWGYGCTR [SEQ ID NO 42] | < 100
QWSCVFSPGVRGCKLV (disulfide 4-13 (inferred)) [SEQ ID NO 97] | < 100
SKCVYDYNFGTCIF [SEQ ID NO 79] | < 100
RRFCLRSEPAACWFV [SEQ ID NO 67] | < 100
IKCRVLEAGTPCVF (disulfide 3-12 (inferred)) [SEQ ID NO 73] | < 100
HTVCCQDWGCRSCSG [SEQ ID NO 282] | < 100
TIKCGSSGWCWVEAG [SEQ ID NO 301] | < 100
CRVWCNQAECMCIF [SEQ ID NO 287] | < 100
WVICSAVGCRPF (disulfide 4-9 (inferred)) [SEQ ID NO 31] | < 100
WVICSALGCRPF [SEQ ID NO 35] | < 100
SICCTPQLCHSCDG [SEQ ID NO 290] | < 100
MVSCTDLGCVVVGGG [SEQ ID NO 302] | < 100
RSCNRYGIWGHCDT [SEQ ID NO 72] | < 100
FWECVYSPGSRGCRMV (disulfide 4-13 (inferred)) [SEQ ID NO 93] | < 100
LECQPYRGPLYYCQD [SEQ ID NO 289] | < 100
B1 | < 100
NHCTMDWRLGACIF [SEQ ID NO 77] | < 100

Binder | IC50 [µM]
YVLCSNRNGCRP [SEQ ID NO 41] | < 100
MACCTPRGCRPC [SEQ ID NO 283] | < 100
CVACSSDGCSPIIC [SEQ ID NO 292] | < 100
VSCKIDRRSGSCLF (disulfide 3-12 (inferred)) [SEQ ID NO 84] | < 100
GSRCYWDPGREVCIFK [SEQ ID NO 91] | < 100
VSCRFRPDLGFCIF [SEQ ID NO 85] | < 100
SRCSFDVTKQECVF (disulfide 3-12 (inferred)) [SEQ ID NO 288] | < 100
VRCLYDSITRTCTF [SEQ ID NO 83] | < 100
WVICSALGCKAW [SEQ ID NO 36] | < 100
TKLCLKSEPQACWSM [SEQ ID NO 53] | < 100
B2 | < 100
IRCRYEKQSGICLF [SEQ ID NO 74] | < 100
FLHWPVYFCQVM [SEQ ID NO 4] | < 100
RSVCCSSYGCRACFG [SEQ ID NO 284] | < 100
KWICRLVPGNGACHSF [SEQ ID NO 95] | < 100
WVACSWDHGCRS (disulfide 4-10 (inferred)) [SEQ ID NO 43] | < 100
FIPWDEYFAQLL [SEQ ID NO 8] | < 100
AICSEDEGGELCCWH [SEQ ID NO 293] | < 100
VTQCFDGPGSFRCCYQ [SEQ ID NO 297] | < 100
EWECRFLPGRRGCSLF [SEQ ID NO 92] | < 100
KYWCLRSEPDACFAT (disulfide 4-12 (inferred)) [SEQ ID NO 51] | < 100
RFICRIQPGREGCWSL [SEQ ID NO 98] | < 100
